Assay results from PMC8685902, “Perception of structurally distinct effectors by the integrated WRKY domain of a plant immune receptor”.

How the values were obtained:
[1] = target: RRS1^WRKY, integrated WRKY domain of RRS1-R (residues 1194 to 1273) (Arabidopsis); assay: ITC; AvrRps4^C (wild type or mutant) titrated into a solution of the WRKY domain; three independent experiments fitted globally to a 1:1 binding model (AFFINImeter)
[2] = target: AvrRps4^C, in planta processed C-terminal fragment of AvrRps4 (residues 134 to 221) (Pseudomonas syringae pv. pisi); assay: SEC; analytical gel filtration on a Superdex 75 10/300 column; proteins alone and after incubation at an equimolar (1:1) ratio
[3] = target: RRS1^WRKY, integrated WRKY domain of RRS1-R (residues 1194 to 1273) (Arabidopsis); assay: as above
[4] = target: AtWRKY41 (Thr125 to Ile204), DNA-binding domain (Arabidopsis) (UniProt Q8H0Y8); assay: ITC; AvrRps4^C (wild type or mutant) titrated into a solution of the WRKY domain; three independent experiments fitted globally to a 1:1 binding model (AFFINImeter)
[5] = target: RRS1B^WRKY, integrated WRKY domain of RRS1B (Asn1164 to Thr1241) (Arabidopsis) (UniProt Q9FL92); assay: as above
Chain of RRS1B^WRKY, integrated WRKY domain of RRS1B (Asn1164 to Thr1241) (Arabidopsis) (Q9FL92 1164-1241): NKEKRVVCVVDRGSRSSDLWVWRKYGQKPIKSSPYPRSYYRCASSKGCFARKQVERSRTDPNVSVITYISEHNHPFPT

[6] = target: AtWRKY41 DNA-binding domain (Thr125-Ile204) (Arabidopsis) (UniProt Q8H0Y8); assay: ITC; MicroCal PEAQ-ITC; cell 20 uM RRS1WRKY, AtWRKY41 or RRS1BWRKY, syringe 200 uM AvrRps4C wild type or mutant; 25 C; buffer A4 (20 mM HEPES pH 7.5, 150 mM NaCl); triplicate, global fit to a 1:1 binding model (AFFINImeter)
[7] = target: RRS1B^WRKY, integrated WRKY domain of RRS1B (Asn1164-Thr1241) (Arabidopsis) (UniProt Q9FL92); assay: as above
Chain of RRS1B^WRKY, integrated WRKY domain of RRS1B (Asn1164-Thr1241) (Arabidopsis) (Q9FL92 1164-1241): as above

[8] = target: T1, RRS1 WRKY domain (RRS1-R) (UniProt C4B7M5 1194-1273); assay: EMSA; no effector; EMSA: 10 mM Tris-Cl pH 7.5, 50 mM KCl, 1 mM DTT, 5% glycerol; SPR: 10 mM HEPES pH 7.5, 250 mM NaCl, 0.005% Tween-20, 25 C (Biacore 8K, ReDCaT); settings: protein: recombinant; tags: 6xHis-MBP (pOPIN-M), cleaved with 3C; label: 5' Cy3 on forward strand; blunt
T1 sequence: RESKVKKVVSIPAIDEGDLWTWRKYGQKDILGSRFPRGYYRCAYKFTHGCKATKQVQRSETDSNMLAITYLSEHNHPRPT

[9] = target: T2, AtWRKY41 DNA-binding domain (UniProt Q8H0Y8 125-204); assay: as above; settings: protein: recombinant; tags: 6xHis-MBP (pOPIN-M), cleaved with 3C; label: 5' Cy3 on forward strand; blunt
T2 sequence: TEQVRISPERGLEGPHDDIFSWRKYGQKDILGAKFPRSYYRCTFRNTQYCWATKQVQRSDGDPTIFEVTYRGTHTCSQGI

AvrRps4^C Q194A (domain or fragment) was tested, and the fold reduction in affinity against wild-type AvrRps4^C [1] was 7 fold.

“AvrRps4^C, in planta processed C-terminal fragment of AvrRps4 (residues 134 to 221) (domain or fragment)” showed a stoichiometry N [2] of 2, a stoichiometry N [3] of 1 and a Kd [4] of 20 nM. For the same molecule, the fold weaker binding than to RRS1^WRKY [5] was 3 fold, the Kd [1] was 103 nM and the stoichiometry N [1] was 1.

“AvrRps4^C, the in planta processed C-terminal fragment of AvrRps4 (residues 134-221) (domain or fragment)” gave a stoichiometry N [6] of 1.1 and a stoichiometry N [7] of 0.8.

B1: Cy3 W-box DNA (dsDNA)
DNA 1: CGCCTTTGACCAGCGC
DNA 2: GCGCTGGTCAAAGGCG
B1: binds [8]; binds [9].
